Reference: PMC5374532, “Rational mutagenesis by engineering disulphide bonds improves Kluyveromyces lactis beta-galactosidase for high-temperature industrial applications” (Scientific Reports, 2017)

Molecular target: the molecule itself
Assay: AUC; sedimentation velocity, 0.2 mg/mL enzyme, 50 mM Tris-HCl, 150 mM NaCl, pH 7.4, 48 k rpm, c(s) distribution (SEDFIT); self-association, shares of monomer, dimer, trimer and tetramer

B1: Kluyveromyces lactis β-galactosidase (enzyme, UniProt P00723 2-1025, looked up)
chain: SCLIPENLRNPKKVHENRLPTRAYYYDQDIFESLNGPWAFALFDAPLDAPDAKNLDWETAKKWSTISVPSHWELQEDWKYGKPIYTNVQYPIPIDIPNPPTVNPTGVYARTFELDSKSIESFEHRLRFEGVDNCYELYVNGQYVGFNKGSRNGAEFDIQKYVSEGENLVVVKVFKWSDSTYIEDQDQWWLSGIYRDVSLLKLPKKAHIEDVRVTTTFVDSQYQDAELSVKVDVQGSSYDHINFTLYEPEDGSKVYDASSLLNEENGNTTFSTKEFISFSTKKNEETAFKINVKAPEHWTAENPTLYKYQLDLIGSDGSVIQSIKHHVGFRQVELKDGNITVNGKDILFRGVNRHDHHPRFGRAVPLDFVVRDLILMKKFNINAVRNSHYPNHPKVYDLFDKLGFWVIDEADLETHGVQEPFNRHTNLEAEYPDTKNKLYDVNAHYLSDNPEYEVAYLDRASQLVLRDVNHPSIIIWSLGNEACYGRNHKAMYKLIKQLDPTRLVHYEGDLNALSADIFSFMYPTFEIMERWRKNHTDENGKFEKPLILCEYGHAMGNGPGSLKEYQELFYKEKFYQGGFIWEWANHGIEFEDVSTADGKLHKAYAYGGDFKEEVHDGVFIMDGLCNSEHNPTPGLVEYKKVIEPVHIKIAHGSVTITNKHDFITTDHLLFIDKDTGKTIDVPSLKPEESVTIPSDTTYVVAVLKDDAGVLKAGHEIAWGQAELPLKVPDFVTETAEKAAKINDGKRYVSVESSGLHFILDKLLGKIESLKVKGKEISSKFEGSSITFWRPPTNNDEPRDFKNWKKYNIDLMKQNIHGVSVEKGSNGSLAVVTVNSRISPVVFYYGFETVQKYTIFANKINLNTSMKLTGEYQPPDFPRVGYEFWLGDSYESFEWLGRGPGESYPDKKESQRFGLYDSKDVEEFVYDYPQENGNHTDTHFLNIKFEGAGKLSIFQKEKPFNFKISDEYGVDEAAHACDVKRYGRHYLRLDHAIHGVGSEACGPAVLDQYRLKAQDFNFEFDLAFE
notes: β-galactosidase of Kluyveromyces lactis, LAC4 gene (Gene ID 2897170), amplified from plasmid pLX8 and cloned in YEpFLAG; Monomer 118 kDa as printed; also called Kl-β-Gal; native Kl-β-Gal; not shown: FLAG, N-terminal, kept
**Q.** B1 was tested. Which “stoichiometry N” value did it give?
**A.** 2
